The source of these data is publication PMC5989136.

A word on the stoichiometry N: it is the number of molecules, sites or subunits per partner or assembly.

This assay deals with H4 conjugated to SUMO (UniProt P62799). Description: refolding of the histone complex, analysed by SDS-PAGE.

As for “H3K23ac (H3 with acetylation at K23) (from UniProt P84233 1-136) (natural protein)”, the stoichiometry N was 1 H3K23ac:H4.
